Data on 1 molecule can be found in patent publication US20050074754A1 (published 2005).

The experiment concerns the target T1, human NKG2D (human, UniProt P26718 1-216).
T1 construct: whole, on cells; also called hNKG2D; expressed on CHO-K1/hNKG2D-11 cells
T1 sequence (looked up): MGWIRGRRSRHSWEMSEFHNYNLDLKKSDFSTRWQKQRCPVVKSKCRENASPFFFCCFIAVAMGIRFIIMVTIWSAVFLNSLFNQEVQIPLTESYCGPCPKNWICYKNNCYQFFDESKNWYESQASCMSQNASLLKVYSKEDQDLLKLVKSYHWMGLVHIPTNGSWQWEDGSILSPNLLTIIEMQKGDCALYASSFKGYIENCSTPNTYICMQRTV
The experiment in a line: flow cytometry on CHO-K1/hNKG2D-11 cells, detected with anti-human IgG (Fc)-FITC. Here is the method:
The human NKG2D-expressing CHO-K1 cell strain CHO-K1/hNKG2D-11 obtained in Example 7 was washed twice with PBS/1% FBS and suspended in 50 μl PBS/1% FBS containing 10 μl concentrate of the culture supernatant of the CSP2-Fc-expressing COS7 cells obtained in Example 6. The suspension was reacted at 0° C. for 60 minutes for binding them, then washed twice with 200 μl PBS/1% FBS, and suspended in 50 μl PBS/1% FBS containing 1 μl anti-human IgG (Fc)-FITC conjugate (Caltag). The suspension was reacted at 0° C. for 60 minutes for labeling, then washed twice with 200 μl PBS/1% FBS, and suspended again in 600 μl PBS/1% FBS. When the suspension was analyzed with a flow cytometer FACS Vantage (Becton Dickinson), cells with high intensity of FITC fluorescence were recognized, and the evident binding of CSP2-Fc protein to human NKG2D expressed on the surface of CHO-K1 cells was observed (FIG. 2A).

B1: CSP2-Fc protein (fusion protein of CSP2 protein with human IgG Fc region) (Fc fusion)
chain: HSLCFNFTIKSLSRPGQPWCEAQVFLNKNLFLQYNSDNNMVKPLGLLGKKVNATSTWGELTQTLGEVGRDLRMLLCDIKPQIKTSDPSTLQVEMFCQREAERCTGASWQFAINGEKSLLFDAMNMTWTVINHEASKIKETWKKDRGLEKYFRKLSKGDCDHWLREFLGHWEAMPEPTVSPVNASDIHWSSS
notes: Used as a 100-fold concentrate of the culture supernatant of transfected COS7 cells, not purified; The construct encodes CSP2 residues 1-221; not shown: human IgG Fc region, amplified by PCR from human spleen IgG Fc cDNA (Clontech); Subclass, limits and the residues encode
Turning to B1, the binding result is on record as “binds”.
